Laboratory results from PMC4718636, “Recombinant hTRBP and hPACT Modulate hAgo2-Catalyzed siRNA-Mediated Target RNA Cleavage In Vitro” (PLoS ONE, 2016).

Molecular target: T1, GST-hAgo2 (human Argonaute2) (human, UniProt Q9UKV8 1-859)
T1 construct: human Argonaute2 (hAgo2); In the cleavage assays hAgo2 stood with siRNA (hAgo2/siRNA complex); also called wt-hAgo2; hArgonaute2; source: expressed and purified as previously described [27]
Experiment: pull-down; pulldown assays shown only in Figure I of the S1 Supporting Information File; format not given
Conditions: both partners purified

T1 sequence (Q9UKV8 whole entry): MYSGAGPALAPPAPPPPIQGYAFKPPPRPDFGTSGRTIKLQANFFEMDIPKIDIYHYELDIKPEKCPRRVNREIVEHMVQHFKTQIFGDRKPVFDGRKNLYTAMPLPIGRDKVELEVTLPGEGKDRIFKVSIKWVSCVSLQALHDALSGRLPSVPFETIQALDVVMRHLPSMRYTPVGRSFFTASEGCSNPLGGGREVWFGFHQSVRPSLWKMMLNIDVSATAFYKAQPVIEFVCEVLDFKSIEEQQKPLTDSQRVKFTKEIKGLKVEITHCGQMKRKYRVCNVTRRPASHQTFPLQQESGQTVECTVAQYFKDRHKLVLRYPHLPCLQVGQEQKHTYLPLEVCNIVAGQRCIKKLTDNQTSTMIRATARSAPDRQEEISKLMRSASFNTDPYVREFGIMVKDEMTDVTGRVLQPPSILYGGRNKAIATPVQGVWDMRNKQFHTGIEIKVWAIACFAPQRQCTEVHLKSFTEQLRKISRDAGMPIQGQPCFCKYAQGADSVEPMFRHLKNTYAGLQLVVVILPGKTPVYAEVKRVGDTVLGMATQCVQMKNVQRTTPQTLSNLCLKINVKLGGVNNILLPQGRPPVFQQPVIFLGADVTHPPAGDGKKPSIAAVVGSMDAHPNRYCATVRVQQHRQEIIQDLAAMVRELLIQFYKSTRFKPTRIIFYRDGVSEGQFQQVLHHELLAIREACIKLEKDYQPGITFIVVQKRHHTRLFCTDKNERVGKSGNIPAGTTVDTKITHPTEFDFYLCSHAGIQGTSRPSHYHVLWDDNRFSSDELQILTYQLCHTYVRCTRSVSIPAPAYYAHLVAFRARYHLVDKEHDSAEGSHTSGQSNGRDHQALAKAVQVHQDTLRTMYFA

B1: His-hPACT (human protein activator of protein kinase R), purified under native conditions (natural protein, UniProt O75569 1-313, looked up)
chain: MSQSRHRAEAPPLEREDSGTFSLGKMITAKPGKTPIQVLHEYGMKTKNIPVYECERSDVQIHVPTFTFRVTVGDITCTGEGTSKKLAKHRAAEAAINILKANASICFAVPDPLMPDPSKQPKNQLNPIGSLQELAIHHGWRLPEYTLSQEGGPAHKREYTTICRLESFMETGKGASKKQAKRNAAEKFLAKFSNISPENHISLTNVVGHSLGCTWHSLRNSPGEKINLLKRSLLSIPNTDYIQLLSEIAKEQGFNITYLDIDELSANGQYQCLAELSTSPITVCHGSGISCGNAQSDAAHNALQYLKIIAERK
notes: No removal of the His tag is described; also called hPACT^nat; source: E. coli BL21 (DE3), purified under native conditions (Talon Superflow)
B1: binds.
